Biological target: carcinoembryonic antigen (CEA) (UniProt P06731)
Assay: size-exclusion HPLC shift of radioiodinated bispecific conjugate in the presence of excess CEA

Chain of UniProt P06731 (P06731 35-685 limits assumed): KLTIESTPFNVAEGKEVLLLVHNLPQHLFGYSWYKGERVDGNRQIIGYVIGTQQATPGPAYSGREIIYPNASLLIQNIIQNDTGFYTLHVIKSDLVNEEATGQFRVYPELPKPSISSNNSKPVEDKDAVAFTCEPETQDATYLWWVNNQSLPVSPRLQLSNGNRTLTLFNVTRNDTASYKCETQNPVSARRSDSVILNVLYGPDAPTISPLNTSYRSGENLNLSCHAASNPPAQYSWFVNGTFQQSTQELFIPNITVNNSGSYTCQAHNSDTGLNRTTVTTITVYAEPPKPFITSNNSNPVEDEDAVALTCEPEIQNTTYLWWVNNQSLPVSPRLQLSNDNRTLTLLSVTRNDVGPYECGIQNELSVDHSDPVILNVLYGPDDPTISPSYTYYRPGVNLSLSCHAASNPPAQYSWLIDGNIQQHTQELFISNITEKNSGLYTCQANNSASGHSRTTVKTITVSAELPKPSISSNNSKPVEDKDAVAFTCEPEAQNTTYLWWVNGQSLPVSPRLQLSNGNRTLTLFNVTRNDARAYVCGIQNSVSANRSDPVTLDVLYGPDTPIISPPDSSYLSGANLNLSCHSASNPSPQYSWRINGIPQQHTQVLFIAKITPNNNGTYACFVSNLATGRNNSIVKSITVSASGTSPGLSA

In the case of “hMN-14×734 bispecific antibody (Fab' of humanized anti-CEA hMN-14 coupled to Fab' of murine anti-indium-DTPA 734)”, the immunoreactivity (fraction of radioiodinated sample shifted by excess CEA) is reported as > 85%.
